# Test results taken from US20190316133, “Anti-Fibrinogen Aptamers and Uses Thereof” (Laboratoire Francais du Fractionnement et des …, published 2019).
# Key:
# [1] = target: T1, fibrinogen (transgenic human, from milk of transgenic cows) (Homo sapiens, UniProt P02671-2;P02675;P02679 P02671-2:20-644,P02675:31-491,P02679:27-453); assay: SPR; high affinity; pH-dependent; details: tags: none; 97% purity; chain copies: 2
# Method: (§1) The selected aptamer was synthetized with Biotin and a triethylene glycol spacer at the 5′ end of the oligonucleotide. A 1 μM solution of the aptamer was prepared using the SELEX selection buffer. The aptamer solution was heated to 90° C. for 5 min, incubated on ice for 5 min and equilibrated to room temperature for 10 min. The preparation was injected on a streptavidin coated sensor chip SA of Biacore T200 instrument (GE Healthcare) at a flow rate of 10 μl/min for 7 min. Then, different concentrations of the target were injected to the immobilised aptamer at 30 μl/min for 1 minute. After dissociation for 1-2 min a wash step was performed by injecting a suitable wash buffer at 30 μl/min for 1 min. For elution, a suitable elution buffer was injected at 30 μl/min for 1-2 min. Finally the sensor chip was regenerated by injection of 50 mM NaOH at 30 μl/min for 30 sec. During the course of the experiment the response signal was recorded in a sensorgram.
# The core sequences of aptamers SEQ ID NO:1 and SEQ ID NO:58 (namely the minimal sequence binding to fibrinogen) were determined. The aptamer of SEQ ID NO:66 corresponds to the core sequence of aptamer of SEQ ID NO:1. The aptamer of SEQ ID NO:67 is the core sequence of aptamer of SEQ ID NO:58. FIGS. 3A-3D show the binding profile obtained for the core sequences of aptamers of SEQ ID NO:1 and NO:58 by SPR. […]
# [2] = target: T1, fibrinogen (transgenic human, from milk …); assay: SPR; high affinity stated; details: tags: none; 97% purity; chain copies: 2; label: 5' biotin-triethylene glycol
# Method: as §1
# [3] = target: T1, fibrinogen (transgenic human, from milk …); assay: SPR; dose-dependent 125-1000 nM at pH 6.3; not eluted by 1 M NaCl; released at pH 7.4 with 2 M MgCl2; details: tags: none; 97% purity; chain copies: 2; label: 5' biotin-triethylene glycol
# Method: (§2) Each solution of transgenic fibrinogen was injected at pH 6.3 whereby a complex was formed in a dose-dependent manner as evidenced by the increase of the signals depending on the concentration of fibrinogen. […] Fibrinogen was then released from the complex by an elution buffer at pH 7.40 and containing MgCl₂ at 2M. The solid support was then regenerated by injecting a solution of NaOH at 50 mM. X-axis: time in s. Y-axis: SPR response in arbitrary scale.
# as §1, with “Finally the sensor chip was regenerated by injection of 50 mM NaOH at 30 μl/min for 30 sec.” left out
# [4] = target: T1, fibrinogen (transgenic human, from milk …); assay: SPR; dose-dependent 125-1000 nM at pH 6.3; not eluted by 0.5 M NaCl; released at pH 7.4; details: tags: none; 97% purity; chain copies: 2; label: 5' biotin-triethylene glycol
# Method: as §2, with “7.40.” for “7.40 and containing MgCl₂ at 2M.”, “scale” for “scale.”
# as §1
# T1 sequence (P02671 other isoform, or with tags, fused parts or gaps, chain 1 of 3): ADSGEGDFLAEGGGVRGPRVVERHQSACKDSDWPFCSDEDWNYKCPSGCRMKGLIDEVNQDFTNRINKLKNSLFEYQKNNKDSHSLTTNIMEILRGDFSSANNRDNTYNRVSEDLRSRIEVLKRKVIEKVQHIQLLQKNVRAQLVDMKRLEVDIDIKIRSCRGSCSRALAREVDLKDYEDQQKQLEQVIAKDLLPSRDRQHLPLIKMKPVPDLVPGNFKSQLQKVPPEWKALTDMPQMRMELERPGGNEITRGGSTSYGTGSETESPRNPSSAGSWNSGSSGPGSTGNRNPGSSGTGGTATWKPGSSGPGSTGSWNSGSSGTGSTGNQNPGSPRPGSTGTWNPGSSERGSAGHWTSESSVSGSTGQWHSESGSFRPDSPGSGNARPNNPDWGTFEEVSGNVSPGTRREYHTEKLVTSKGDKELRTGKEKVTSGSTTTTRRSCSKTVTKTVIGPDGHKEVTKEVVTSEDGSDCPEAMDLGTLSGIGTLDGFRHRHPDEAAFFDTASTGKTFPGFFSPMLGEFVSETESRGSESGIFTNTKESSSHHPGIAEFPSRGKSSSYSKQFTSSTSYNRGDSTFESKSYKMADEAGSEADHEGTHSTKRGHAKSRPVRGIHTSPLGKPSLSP
# T1 sequence (P02675 31-491, chain 2 of 3): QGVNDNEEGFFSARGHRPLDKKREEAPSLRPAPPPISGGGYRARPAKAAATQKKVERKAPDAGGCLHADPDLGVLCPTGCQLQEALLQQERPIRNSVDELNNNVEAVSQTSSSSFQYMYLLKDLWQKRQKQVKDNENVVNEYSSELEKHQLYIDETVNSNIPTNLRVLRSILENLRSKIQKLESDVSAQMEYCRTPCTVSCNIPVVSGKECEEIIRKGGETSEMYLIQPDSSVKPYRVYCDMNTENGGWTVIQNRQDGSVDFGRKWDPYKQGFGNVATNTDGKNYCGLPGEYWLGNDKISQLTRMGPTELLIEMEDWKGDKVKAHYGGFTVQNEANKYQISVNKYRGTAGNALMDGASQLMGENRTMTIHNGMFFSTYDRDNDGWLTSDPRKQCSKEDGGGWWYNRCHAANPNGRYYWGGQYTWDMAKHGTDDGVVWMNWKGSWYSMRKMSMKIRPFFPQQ
# T1 sequence (P02679 27-453, chain 3 of 3): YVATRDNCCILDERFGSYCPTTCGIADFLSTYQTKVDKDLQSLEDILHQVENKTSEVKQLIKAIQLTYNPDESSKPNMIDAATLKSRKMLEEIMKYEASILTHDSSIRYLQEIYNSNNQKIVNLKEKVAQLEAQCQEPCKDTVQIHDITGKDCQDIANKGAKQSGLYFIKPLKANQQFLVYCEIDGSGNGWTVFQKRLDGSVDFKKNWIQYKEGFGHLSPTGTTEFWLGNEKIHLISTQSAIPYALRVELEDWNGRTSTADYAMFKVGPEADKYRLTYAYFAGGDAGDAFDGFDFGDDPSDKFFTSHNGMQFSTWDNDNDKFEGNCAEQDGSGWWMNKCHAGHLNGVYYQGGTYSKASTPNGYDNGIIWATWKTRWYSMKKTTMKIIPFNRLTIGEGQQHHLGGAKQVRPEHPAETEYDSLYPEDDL
binder,measurement,setting,value
SEQ ID NO:58 aptamer (ssDNA) DNA: GGGTCAATGCCAGGTCTCAACTTTCGCGTGTGGTTGGTAGGGCTAGGTGTATACGCATATCGGCTCGCAAGCAGTC,binding result,[1],binds
SEQ ID NO:65 aptamer (ssDNA) DNA: GGGTCAATGCCAGGTCTCGAGCCGGTGTTGTGTTATGTTGGTAGGGAAGGTGTATAATATCGGCTCGCAAGCAGTC,binding result,[2],binds
SEQ ID NO:1 aptamer (ssDNA) DNA: GGGTCAATGCCAGGTCTCGGACCTGGAATCCGCCACCCGCATTAGAACCAGGGTTGACATCGGCTCGCAAGCAGTC,binding result,[1],binds
CGCGTGTGGTTGGTAGGGCTAGGTGTATACGCAT (ssDNA) [A5-2.9 (core of SEQ ID NO:58)],binding result,[3],binds
A5-1.9 (core of SEQ ID NO:1) (ssDNA) DNA: GGGTCAATGCCAGGTCTCGGACCTGGAATCCGCCACCCGCATTAGAACCAGGGTTGAC,binding result,[4],binds
SEQ ID NO:60 aptamer (ssDNA) DNA: GGGTCAATGCCAGGTCTCTGCGTACTTATCTCGATGTGGTTGGTAGGGATAGGTGTATATCGGCTCGCAAGCAGTC,binding result,[2],binds
